# T1: human IL-11Rα, full length, stably expressed on STAT3-Luc HEK293 cells (human, UniProt Q14626 23-422)
# T1 sequence (looked up): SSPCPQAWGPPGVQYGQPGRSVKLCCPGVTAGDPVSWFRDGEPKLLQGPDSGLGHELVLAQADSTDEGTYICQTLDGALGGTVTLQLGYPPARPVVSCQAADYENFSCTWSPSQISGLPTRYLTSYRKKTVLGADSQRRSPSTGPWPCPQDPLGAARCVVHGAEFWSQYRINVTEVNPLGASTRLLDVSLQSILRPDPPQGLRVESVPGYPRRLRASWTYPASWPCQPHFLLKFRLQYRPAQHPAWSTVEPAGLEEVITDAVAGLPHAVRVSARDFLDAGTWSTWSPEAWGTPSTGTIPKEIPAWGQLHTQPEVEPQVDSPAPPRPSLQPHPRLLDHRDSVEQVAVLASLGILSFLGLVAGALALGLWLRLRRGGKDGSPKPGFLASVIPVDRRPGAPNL
# T2: human IL-11 (AAH12506.1, Pro22-Leu199) (human, UniProt P20809 22-199)
# T2 construct: The range Pro22-Leu199 counts on AAH12506.1; The Octet runs say only 'human IL-11'; also called hIL-11
# T2 chain: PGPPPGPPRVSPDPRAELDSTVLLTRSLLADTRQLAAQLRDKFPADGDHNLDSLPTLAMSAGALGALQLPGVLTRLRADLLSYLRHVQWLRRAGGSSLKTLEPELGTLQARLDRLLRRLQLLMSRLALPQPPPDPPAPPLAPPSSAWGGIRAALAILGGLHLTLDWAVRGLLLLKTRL
# T3: mIL11
# T3 construct: also called murine IL-11 (NP_032376.1, Pro22-Leu199)
# T3 cytokine chain: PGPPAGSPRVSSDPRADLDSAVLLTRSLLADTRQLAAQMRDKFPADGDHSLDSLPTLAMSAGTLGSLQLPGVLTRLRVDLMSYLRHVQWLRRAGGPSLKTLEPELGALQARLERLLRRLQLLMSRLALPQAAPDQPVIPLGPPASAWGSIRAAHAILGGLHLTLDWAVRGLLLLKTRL
# B1: IL-11 (Cat. 12225-HNCE, Sino Biological Inc.) (ligand, UniProt P20809 22-199, looked up)
# chain: PGPPPGPPRVSPDPRAELDSTVLLTRSLLADTRQLAAQLRDKFPADGDHNLDSLPTLAMSAGALGALQLPGVLTRLRADLLSYLRHVQWLRRAGGSSLKTLEPELGTLQARLDRLLRRLQLLMSRLALPQPPPDPPAPPLAPPSSAWGGIRAAHAILGGLHLTLDWAVRGLLLLKTRL
# Tests used:
# [1] = biological target: T1, human IL-11Rα, full length, stably …; assay: cell-based or functional assay
# [2] = biological target: T2, human IL-11 (AAH12506.1, Pro22-Leu199); assay: BLI (Octet QKe), antibody on anti-mouse Fc probe, human IL-11 300 nM
# Protocol: (§1) When the hybridoma cells were cultured to a certain number, culture supernatants were collected and purified using Protein G affinity chromatography to obtain murine hybridoma antibodies (Hy5C2, Hy8C8, Hy16B5, Hy18A10, Hy18H10, Hy23G6 and Hy29C11). The affinity of the murine antibodies purified from the hybridoma supernatants was determined using an Octet QKe System instrument from Fortebio Inc. with an anti-mouse IgG Fc Capture biosensor to capture the Fc fragments of the antibodies, for which an anti-IL-11 antibody named “3C6-mFc” recombinantly expressed was used at the same concentration as a positive control. Specifically, a hybridoma supernatant was diluted with HBS-EP+ buffer (GE), and was allowed to pass through the surface of AMC probes (Cat: 18-5088, PALL), and so the antibody in the hybridoma supernatant was captured on the surface of the probes; then, human IL-11 diluted in the HBS-EP+ buffer (300 nM) was used as a mobile phase to react with the antibody captured on the surface of the probes. Both the binding and the dissociating were conducted for 300 seconds. When the experiment was finished, data from which response values of blank controls had been deducted was fitted using a 1:1 Langmuir binding model by software, and then kinetic constants for antigen-antibody binding were calculated. Binding signals were detected on the Octet QKe System instrument with Hy5C2, Hy8C8, Hy16B5, Hy18A10, and Hy18H10.
# mIL11 = biological target: T3, mIL11; assay: direct ELISA, hybridoma supernatant on plate-immobilised murine IL-11, OD450
# Text: Murine anti-IL-11 hybridoma monoclones 5C2, 8C8, 16B5, 18A10, 18H10, 23G6 and 29C11 were obtained by murine hybridoma technology. The binding activity of the supernatants of those clones to human IL-11 (AAH12506.1, Pro22-Leu199; SEQ ID NO.128) and murine IL-11 (NP_032376.1, Pro22-Leu199; SEQ ID NO.129) immobilized on the surface of ELISA plates was detected via direct ELISA.
# [3] = biological target: B1; assay: competition ELISA: IL-11Rα-His coated, IL-11 + antibody + gp130-Fc
# Protocol: (§2) The activity of the recombinant murine anti-IL-11 antibodies for blocking the formation of IL-11/IL-11Rα/GP130 complex was analyzed via competition ELISA. IL-11Rα-His (NP_004503.1, Met1-Val363, C-terminus-6-His Tag) was firstly added into ELISA plates to be coated overnight. Next day, samples were prepared as follows. […] After co-incubating and washing, an HRP conjugated anti-human Fc secondary antibody was added to develop the color which was then detected.
# [4] = biological target: B1; assay: cell-based or functional assay
# [5] = biological target: B1; assay: competition ELISA, IL-11/IL-11Rα/GP130 complex
# Protocol: as §2
# Then, light and heavy chain expression vectors for preparing mutant antibodies were constructed according to the method for preparing the recombinant antibodies provided in Example 4, using the mutant sequences shown in Table 3 which accordingly were linked with human IgG1 constant regions (SEQ ID NO. 13, and SEQ ID NO.14). Subsequently, the light chain and the heavy chain were reasonably matched and co-transfected into eukaryotic cells for transient expression, and then recombination protein samples of the mutant antibodies were obtained through affinity purification. The samples obtained were tested for affinity on Fortebio Octet, according to the method for measuring affinity provided in Example 1. Further, using the protocol provided in Example 3, hz8C8 and its affinity matured mutants were analyzed for their activity for blocking the formation of IL-11/IL-11Rα/GP130 complex.
# [6] = biological target: T2, human IL-11 (AAH12506.1, Pro22-Leu199); assay: BLI (Octet), antibody on AHC probe, human IL-11 in solution
# Protocol: as §1
# (§3) The affinity of hz18A10 and hz8C8 was determined according to the method provided in Example 1 using AHC bioprobes for capturing human Fc fragment instead, with other conditions unchanged. A recombinantly expressed anti-IL-11 antibody 3C6-hFc was used at the same concentration as a positive control.
# [7] = biological target: T2, human IL-11 (AAH12506.1, Pro22-Leu199); assay: as above
# Protocol: as §1, §3
Binder,Kd [2] [nM],koff [2] [s⁻¹],kon [2] [M⁻¹ s⁻¹],IC50 [3] [µg/mL],further results
B1,,,,,EC50 of IL-11 in stimulating the transcriptional expression of STAT3-luc reporter gene [1]: 0.00011 µg/mL
"Hy8C8 (antibody, V domains shown, murine hybridoma antibody) VH: DVQLVESGGGLVQPGGSRKLSCAASGFTFSSFGMHWVRQSPERGLEWVAYITSGSNTIYYADTVKGRFTISRDNPENTLFLQMTSLRSEDTAMYYCAREYYSYDEGFAYWGQGTLVTVSA VL: EIVLTQSPTTMAASPGEKITITCSVSSSISSNYLHWYQQKPGFSPKLLIYRTSNLASGVPARFSGSGSGTSHSLTIDTMEAEDVATYYCQQGVDVPFTFGSGTKLEIKR",1.3,0.00204,1.51e+06,,binding result (mIL11): binds
"mu8C8 (antibody, V domains shown, also called recombinant murine antibody 8C8) VH: DVQLVESGGGLVQPGGSRKLSCAASGFTFSSFGMHWVRQSPERGLEWVAYITSGSNTIYYADTVKGRFTISRDNPENTLFLQMTSLRSEDTAMYYCAREYYSYDEGFAYWGQGTLVTVSA VL: EIVLTQSPTTMAASPGEKITITCSVSSSISSNYLHWYQQKPGFSPKLLIYRTSNLASGVPARFSGSGSGTSHSLTIDTMEAEDVATYYCQQGVDVPFTFGSGTKLEIKR",,,,1.61,
"Hy18A10 (antibody, V domains shown, murine hybridoma antibody) VH: QVQLQQPGAELVKPGASVKMSCKASGYKFITYNMDWVKQTPGQGLEWIGTIYPGNGDTSYNQKFKGKATLTADKSSSTAYMQLSSLTSEDSAVYYCARGDLYALDYWGQGTSVTVSS VL: SIVMTQTPKFLLVSAGDRVTITCKASQSVSNDVAWYQQKPGQSPKLLIYSASNRYTGVPDRFTGSGYGTDFTFTINTVQAEDLAVYFCQHDYSSPYTFGGGTKLEIKR",1.09,0.00187,1.71e+06,,binding result (mIL11): binds
"mu18A10 (antibody, V domains shown, also called recombinant murine antibody 18A10) VH: QVQLQQPGAELVKPGASVKMSCKASGYKFITYNMDWVKQTPGQGLEWIGTIYPGNGDTSYNQKFKGKATLTADKSSSTAYMQLSSLTSEDSAVYYCARGDLYALDYWGQGTSVTVSS VL: SIVMTQTPKFLLVSAGDRVTITCKASQSVSNDVAWYQQKPGQSPKLLIYSASNRYTGVPDRFTGSGYGTDFTFTINTVQAEDLAVYFCQHDYSSPYTFGGGTKLEIKR",,,,1.4,
"3C6-mFc (antibody, mouse IgG1, murine IgG1 constant regions; also called positive control anti-IL-11 antibody) heavy: EVQLVQSGAEVKKPGASVKISCKASGYTFTDYNMDWVKQAPGQRLEWIGDINPHNGGPIYNQKFTGRATLTVDKSASTAYMELSSLRSEDTAVYYCARGELGHWYFDVWGQGTTVTVSSAKTTPPSVYPLAPGSAAQTNSMVTLGCLVKGYFPEPVTVTWNSGSLSSGVHTFPAVLQSDLYTLSSSVTVPSSTWPSETVTCNVAHPASSTKVDKKIVPRDCGCKPCICTVPEVSSVFIFPPKPKDVLTITLTPKVTCVVVDISKDDPEVQFSWFVDDVEVHTAQTQPREEQFNSTFRSVSELPIMHQDWLNGKEFKCRVNSAAFPAPIEKTISKTKGRPKAPQVYTIPPPKEQMAKDKVSLTCMITDFFPEDITVEWQWNGQPAENYKNTQPIMDTDGSYFVYSKLNVQKSNWEAGNTFTCSVLHEGLHNHHTEKSLSHSPGK light: DIVLTQSPASLALSPGERATLSCRASKSVSTSGYSYIHWYQQKPGQAPRLLIYLASNLDSGVPARFSGSGSGTDFTLTISSLEEEDFATYYCQHSRDLPPTFGQGTKLEIKRTVAAPTVSIFPPSSEQLTSGGASVVCFLNNFYPKDINVKWKIDGSERQNGVLNSWTDQDSKDSTYSMSSTLTLTKDEYERHNSYTCEATHKTSTSPIVKSFNRNEC",0.712,0.000581,816000,2.1,
"3C6-hFc (antibody, human IgG1, kappa, human IgG1 constant regions; also called positive control antibody; hz3C6) heavy: not shown light: DIVLTQSPASLALSPGERATLSCRASKSVSTSGYSYIHWYQQKPGQAPRLLIYLASNLDSGVPARFSGSGSGTDFTLTISSLEEEDFATYYCQHSRDLPPTFGQGTKLEIKRTVAAPSVFIFPPSDEQLKSGTASVVCLLNNFYPREAKVQWKVDNALQSGNSQESVTEQDSKDSTYSLSSTLTLSKADYEKHKVYACEVTHQGLSSPVTKSFNRGEC",,,,,"Blocking activity (IC50), STAT3-luc reporter [4]: 0.342 µg/mL; IC50 [5]: 1.9 µg/mL; Kd [6]: 0.712 nM; koff [6]: 0.000581 s⁻¹; kon [6]: 816000 M⁻¹ s⁻¹; Kd [7]: 0.712 nM; koff [7]: 0.000581 s⁻¹; kon [7]: 816000 M⁻¹ s⁻¹"

# Source: patent publication US20250197488A1 (MABWELL SHANGHAI BIOSCIENCE, published 2025)
